From the supplement of paper PMC12455559
± gives the standard deviation of the averaged measurements.

Tests used:
[1] = PET hydrolysis, aromatic products released after 48 h (umol product/mg enzyme); higher = more PET depolymerization activity
Outline: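 Tagless, SUMO-cleaved candidate enzymes were purified on nickel beads, and 5 μg (50 μL) was added to 3.5 mg amorphous PET film or crystalline PET powder in 450 μL buffer. Buffers were 50 mM NaCitrate (pH 4.5, 5.5), 50 mM NaPhosphate (pH 6.5, 7.5) or glycine (pH 8.5). Sealed plates were incubated 48 h at 40 or 60 °C without shaking. PET hydrolysis activity is the aromatic product in the supernatant, read by absorbance at 260 and 280 nm against buffer blanks and expressed per mg enzyme.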

[2] = purified protein yield per well (BCA); higher = higher soluble expression
Outline: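 Candidate enzymes were made in 2 mL autoinduction cultures of E. coli C41(DE3) with 100 µg/mL kanamycin, at 37 °C for 2 h and then 18 °C for 40 h, and purified with Ni-charged magnetic beads and SUMO protease cleavage. The Pierce Rapid Gold BCA kit gave purified protein yield per well. Values lower than 25 ug (0.1 mg/mL) are below the detection threshold.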

[3] = melting temperature (DSF); higher = more thermostable
Outline: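 On a Bio-Rad CFX96, fluorescence of 45 μL enzyme (0 to 0.3 mg/mL) mixed with 5 μL 5X Sypro Orange in sealed PCR plates was followed from 25 °C through 250 cycles of 0.3 °C, with a 0.3 °C/s ramp. The enzymes had been expressed in E. coli C41(DE3), taken up on nickel beads and released by SUMO protease. Melting temperature, measured by differential scanning fluorimetry, is the value given.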

[4] = substrate: cryPow, 40 °C, pH 4.5
[5] = substrate: cryPow, 40 °C, pH 5.5
[6] = substrate: cryPow, 40 °C, pH 6.5
[7] = substrate: cryPow, 40 °C, pH 7.5
[8] = substrate: cryPow, 60 °C, pH 4.5
[9] = substrate: cryPow, 60 °C, pH 5.5
[10] = substrate: cryPow, 60 °C, pH 6.5
[11] = substrate: cryPow, 60 °C, pH 7.5

Row | Sequence | PET hydrolysis ([1]; substrate: aFilm, 40 °C, pH 4.5) | PET hydrolysis ([1]; substrate: aFilm, 40 °C, pH 5.5) | PET hydrolysis ([1]; substrate: aFilm, 40 °C, pH 6.5) | PET hydrolysis ([1]; substrate: aFilm, 40 °C, pH 7.5) | PET hydrolysis ([1]; substrate: aFilm, 60 °C, pH 4.5) | PET hydrolysis ([1]; substrate: aFilm, 60 °C, pH 5.5) | PET hydrolysis ([1]; substrate: aFilm, 60 °C, pH 6.5) | PET hydrolysis ([1]; substrate: aFilm, 60 °C, pH 7.5) | PET hydrolysis [1, 4] | PET hydrolysis [1, 5] | PET hydrolysis [1, 6] | PET hydrolysis [1, 7] | PET hydrolysis [1, 8] | PET hydrolysis [1, 9] | PET hydrolysis [1, 10] | PET hydrolysis [1, 11] | purified protein yield per well [2] | melting temperature [3]
1 | APPARVAALATTAYQRGPAPTLSGVRAALGPFSYSTASVSAAATGYTFGGGTVYYPDDTSQGTFGGIAVTPGYTGTEGSIAWLGPRLASQGFVVITIATKSLYDQPTARGQQLLAALDYLKTYSPAAVRQRLDPQRLAVSGHSMGGGGALYAVWSRPSLKAAVPLAPYHTIKNWSAITVPTLIEAGTADTVTPVGTFAEPIYQSLTGASERAYAEVAGANHLTFTAENPLIGGLEVAWMKRFVDDDARYDQFLCPAPTDPGLTEYRDSCPTS [TEP101] | < 3 | < 3 | < 3 | < 3 | < 3 | < 3 | < 3 | < 3 | < 3 | 9 ± 1.4 | 18.5 ± 0.71 | 24 ± 2.8 | < 3 | 3 | 7.5 ± 0.71 | 7.5 ± 0.71 | 377 µg | 56.5 C
2 | ENAIINGTYSLIVTQSGKALDTSQWGTIDGTNITLNDYWGGESQKFIITPVDGIWHRITPVIAPDQAFDVSKCSPNVGANIQTWSYEGGACQQFRFAETGNGTYQIITRGTDMSLNVNNLSEENDTNVMQSTSTGKENQIFTLRRHAESHISGNCPDGAICRDEEAPGLYDGKGPYNVRSYELPGAYVTLPATARVYYPANAEPPYSGIVFCPPFMTKQIAFAAWGPWFASHGMVLVTMDTTTIFDQVTARDNQQWRVVKALRRENTRLGSPLRGKLDTDKIGIMGWSMGGGASWINAGKHRDELKTVISLAGHNMTAWYNTDIYSWYSPEELLDAAYASGRLIKIPALIINGALDTTILGGLGQSDGVYRSISNTPKVLAVLGLAGHFAWGYPTQAGRGVASLVLAFEKTFLDGDTRWAPYIQKPSAPMRKWRTADLP [TEP050] |  |  |  |  |  |  |  |  | < 3 | < 3 | < 3 | < 3 | < 3 | < 3 | < 3 | < 3 | 60.6 µg | 46.3 C
3 | ASYQRGPDPTVQSVAANRGTFPTAEITVPRGYGFNGGKIYYPTDTSQGTWGAIAAVPGYTASWAAEGAWMGPWLASFGFVVIGIDTNSPTDFDTARGTQLLAALDYLTGQSAVRDRVDPNRLAVLGHSMGGGGAISAAMRRPTLKAAIPLAPASFSQNLSTVRVPTLIMGARDDGTVTPSSINSLWATKPATTKGAYVELTGGGHGFPTWGNSQVTRREIPWLKIFLDNDNRYTQFLCPSLADNTGVSRYLSECPYGSTGQPTSPPSTPPPTSGGPVRAVGAGKCLDVPNASQTNDTQLAIWDCNGGTNQRWTRTAGKQLTVYGNKCLDAAGQGTTNGTRVIIWDCTGTANQQWNVNANGTITGVQSGLCLDVSGGSTANGALTQLWACNNGSNQQWRLG [ESM070] |  |  |  |  |  |  |  |  | < 3 | 4 | 10 | 17 | < 3 | < 3 | < 3 | < 3 | 254 µg | 64.6 C
4 | ADNPYQRGPEPTTSSVAATRGTFATAEVSVSKGNGFGGGKIYYPTDTSKGTFGAIAVVPGYTATWAAEGAWMGPWLASFGFVVIGIDTNSRTDYDTARGTQLLAALDYLTQKSSVRSRVDVKRLSVMGHSMGGGGAMYAALHRPSLWAAVGNAPFSPSQNLKSDRVPTLLLAGQKDTTVTPSSVVGLYNGIPAATEKGYLELTGAAHNFPTRSNSVMMRKVVPWLKIFVDHDTRYGQFLCPSLKDTTGITSYRSTCPLTTAGQ [ESM078] |  |  |  |  |  |  |  |  | < 3 | < 3 | < 3 | < 3 | < 3 | < 3 | < 3 | < 3 | 68.8 µg | 52 C
5 | SSCDIMGDVNEDSEVDIVDALLIAQAYVGLNPTIEYHPCADVNCSGSVDIVDALLIAQKYVGLISEFSCQNTPEPTIEPTSAPVLNIACGSSSALGIFQEDQYYSGGSTHNNSNTIDVSRITVNTPPTGLFNNERYGEMSYTIPDLSAGDTYTVTLYFAETYLTSPGSRLFNVSINSTEVLTNFDIYAAAGGQNNGISQSFITTANTSGRIVIDFTAVTENPKINGISIVTGIGPTNIPTPEPTPTPENSGFQRGPDPSLESISANRGTFATAELTFPAGNGFGGGFIYYPTDTSLGTWAAVAICPGGSAKFANEETWMGHWLASFGFVVIGMETNNTYDYPESRGTQLLAALDYLTQKSAVKDRVDPDRLMVMGHSMGGGGAFHAAMARSSLKTMVALAPWFNSSLTSPSMTNLHMPAMIISARNDTVVTPASCSAIYDKIPTTTQRAWVELAADDHLGFTKSNPTEMRVLIPWMKIFLDNDERYVQFLCPIANSSNISVYKNSCPFVP [TEP039] |  |  |  |  |  |  |  |  | < 3 | < 3 | < 3 | < 3 |  |  |  |  | 34.3 µg | 50.8 C
